Experimental data published in the supplement of paper PMC10567573.

B1: KCNK9 (parent)
chain: DVPDLQSVCSCTCYRSQDYGGRSV
B2: INTS3 (parent)
chain: KKREFRFHPIKETVVEEPVDITPY

Variants of: B1
Assay: protein stability index of a GFP-peptide fusion (GPS, HEK-293T) (PSI 1-6); higher = more stable
Conditions: c terminus: a fixed tail appended
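Note: lentivirally expressed fusions sorted by FACS into six bins by GFP to DsRed ratio, PSI derived from sequencing read proportions per bin multiplied by bin number.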

Protein stability index of substitutions, site by site:
V24: Q 1.72, P 2.35, W 2.42, L 2.44, F 1.13, E 2.15, K 1.45, C 1.49, A 1.68, Y 1.49, H 1.64, N 2.5, I 2.37, S 1.68, T 2.73, D 2.69
R15: K 2.08, P 2.05, G 2.23, E 2.52, C 2.17, T 2.2, L 1.49, S 2.48, Q 1.68, Y 1.98, W 2.21, H 2.68, V 1.28, F 1.78, D 3.58, A 2.07
Q6: G 1.63, Y 4.08, I 2.39, S 1.59, N 1.82, D 2.27, K 1.98, A 1.65, H 1.88, W 2.57, L 3.01, C 2.56, R 2.73, E 1.3, V 1.97, M 2.61, T 1.85, P 1.5
R22: P 2.16, W 2.4, L 3.27, C 2.38, H 2.43, T 1.89, S 2.2, D 3.58, E 3.3, Y 1.47, M 2.04, F 1.33, K 3.06, G 2.06, Q 3.22, N 2.6, V 2.82, I 1.93, A 1.84
Y14: K 2.27, V 2.38, S 2.29, M 3.61, C 1.75, P 2.71, R 2.37, H 2.55, N 2.23, T 1.5, L 1.47, G 2.42, F 2.1, I 1.83, Q 1.53, W 3.24, D 1.92, A 1.91
V8: A 2.8, K 1.68, S 2.06, P 1.77, D 2.8, R 2.29, E 2.24, N 2.5, G 3.36, Q 2.42, H 1.57, T 1.72, W 1.29, L 1.59, I 2, F 2.22, Y 1.86, M 1.06
Q17: I 1.87, M 2.76, S 2.41, R 2.58, D 2.15, N 1.51, H 2.14, E 2.07, P 1.27, K 1.86, A 1.56, C 2.31, L 3.13, W 2.44, G 2.21, T 2.39, F 1.95
C9: Q 2.03, I 2.38, D 3.26, M 2.06, N 2.66, P 1.67, V 2.18, H 1.71, E 2.37, A 2.7, K 2.29, F 2.01, Y 1.82, G 1.75, S 3.05, T 1.89, L 2.16
S23: N 2.14, Y 2.59, R 1.48, A 1.8, V 1.32, K 4.09, Q 2.12, H 1.67, C 1.98, D 2.1, I 3.17, L 2.27, F 2.11, G 2.96, W 2.53
C13: T 3, V 2.31, W 1.75, F 1.14, Y 1.94, E 2.85, N 2.53, K 1.82, D 2.12, Q 2.69, A 2.28, I 2.85, M 1.73, P 2.81, G 3.14, S 2.79, L 1.97, R 2.19
S7: E 1.81, W 2.48, K 1.96, F 2.32, R 1.57, P 1.46, M 1.84, Y 2.07, Q 2.29, V 1.56, I 2.29, H 1.92, C 1.66, G 1.81, N 1.38, D 2.2, A 1.64, T 2.03
S16: F 2.78, I 2.85, E 1.79, G 1.07, C 2.5, R 1.65, K 2.08, N 2.1, T 2.18, L 2.87, P 3.56, D 1.85, H 1.8, A 1.2, Y 2.31, M 2.21, V 1.03
G21: S 3.41, T 2.63, D 2.22, F 1.81, L 1, H 1.9, Y 2.08, V 2.16, R 1.62, A 1.85, Q 1.4, K 1.9, P 2.06
D18: Q 1.51, Y 1.56, E 1.21, S 2.33, T 1.83, F 1.2, V 1.82, H 2.85, L 1.73, K 1.65, R 1.36, N 2.08, W 1.61, P 1.67, M 1.63, C 1.97
G20: N 2.03, E 1.97, S 2.07, C 2.26, A 2.24, D 2.88, P 2.03, L 1.67, Y 2.8, T 1.87, H 2.88, V 1.2, I 2.15, F 1.35, Q 1.94, K 2.37
C11: Y 3.6, S 3.3, K 3.05, I 2.39, V 2.46, T 2.81, H 2.02, N 3.21, L 2.52, P 3.8, E 4.65, Q 2.59, W 2.59, F 2.06, R 2.34, M 2.13, D 4.15
T12: Y 1.94, S 1.31, I 1.57, N 1.62, F 2.76, G 1.52, D 2.79, Q 1.65, E 2.4, W 2.72, P 2.05, C 1.21, L 1.3, K 1.58, V 2.47, M 1.25, H 3.13, A 1.78
S10: L 2.39, F 1.26, H 1.43, D 2.79, A 1.66, R 1.33, N 1.47, K 1.76, T 2.47, Q 2.25, E 2.16, Y 1.92, P 1.52
L5: M 1.79, T 2.12, N 2.19, S 1.41, W 1.71, V 2.4, Y 1.71, P 2.64, R 1.77, Q 2.38
Y19: E 2.02, H 2.27, M 1.83, D 2.41, T 2.64, C 1.88, A 1.88, R 2.08, P 1.86, K 2.1, Q 2.44, S 1.81, V 1.66, N 1.71, G 1.58, I 2.18, F 2.25

Variants of: B2
Assay: as above
Conditions: c terminus: a fixed tail appended

Protein stability index: each site, then its substitutions
K1: A 2.29, G 1.69, H 1.73, E 2.27, C 1.81, F 2.04, D 2.01
